Assay results as given in PMC9637899.

B1: activated C1s–CCP1–CCP2–SP [human] / ElpB_(182–378) [B. burgdorferi] (parent)
chain 1: MPCPKEDTPNSVWEPAKAKYVFRDVVQITCLDGFEVVEGRVGATSFYSTCQSNGKWSNSKLKCQPVDCGIPESIENGKVEDPESTLFGSVIRYTCEEPYYYMENGGGGEYHCAGNGSWVNEVLGPELPKCVPVCGVPREPFEEKQRIIGGSDADIKNFPWQVFFDNPWAGGALINEYWVLTAAHVVEGNREPTMYVGSTSVQTSRLAKSKMLTPEHVFIHPGWKLLEVPEGRTNFDNDIALVRLKDPVKMGPTVSPICLPGTSSDYNLMDGDLGLISGWGRTEKRDRAVRLKAARLPVAPLRKCKEVKVEKPTADAEAYVFTPNMICAGGEKGMDSCKGDSGGAFAVQDPNDKTKFYAAGLVSWGPQCGTYGLYTRVKNYVDWIMKTMQENSTPRED
chain 2: QERKAKAEKEAKEKAERQKQEEQQKRKAEKEREEQRKEAEKRQVDNEIRTLTGKIDEINRNIDVIKEQTSVGAQGVIDRITGPVYDDFTDGNKAIYKTWGDLEDDNDEGLGKLLKELSDTRHNLRTKLNEGNKAYIIDTRSTEPQLKENVSVSEIKSDLDELKSKLEEVKEYLEDKDNFEEIKEYVAGSEDNYDEED

Variants of: B1
Assay: SPR
Conditions: with ElpB_(182–378) [B. burgdorferi]; steady-state response at the highest analyte concentration plotted (about 5e-7 M on the x axis); ElpB182-378 immobilized, C1s construct injected; parent: 79; read off a plot

Row | Variant | response [RU]
1 | chain 1 MPCPKEDTPNSVWEPAKAKYVFRDVVQITCLDGFEVVEGRVGATSFYSTCQSNGKWSNSKLKCQPVDCGIPESIENGKVEDPESTLFGSVIRYTCEEPYYYMENGGGGEYHCAGNGSWVNEVLGPELPKCVPVCGVPREPFEEKQRIIGGSDADIKNFPWQVFFDNPWAGGALINEYWVLTAAHVVEGNREPTMYVGSTSVQTSRLAKSKMLTPEHVFIHPGWKLLEVPEGRTNFDNDIALVRLKDPVKMGPTVSPICLPGTSSDYNLMDGDLGLISGWGRTEAADRAVALAAARLPVAPLRKCKEVKVEKPTADAEAYVFTPNMICAGGEKGMDSCKGDSGGAFAVQDPNDKTKFYAAGLVSWGPQCGTYGLYTRVKNYVDWIMKTMQENSTPRED [chain 1 K284A R285A R290A K292A] | 7
2 | chain 1 MPCPKEDTPNSVWEPAKAKYVFRDVVQITCLDGFAVVEGRVGATSFYSTCQSNGKWSNSKLKCQPVACGIPESIENGKVEDPESTLFGSVIRYTCEEPYYYMENGGGGEYHCAGNGSWVNEVLGPELPKCVPVCGVPREPFEEKQRIIGGSDADIKNFPWQVFFDNPWAGGALINEYWVLTAAHVVEGNREPTMYVGSTSVQTSRLAKSKMLTPEHVFIHPGWKLLEVPEGRTNFDNDIALVRLKDPVKMGPTVSPICLPGTSSDYNLMDGDLGLISGWGRTEAADRAVALAAARLPVAPLRKCKEVKVEKPTADAEAYVFTPNMICAGGEKGMDSCKGDSGGAFAVQDPNDKTKFYAAGLVSWGPQCGTYGLYTRVKNYVDWIMKTMQENSTPRED [chain 1 E35A D67A K284A R285A R290A K292A] | 0
